According to publication PMC9542132:

Key:
[1] = target: CdvB1 from Metallosphaera sedula, MBP tag cleaved off with 3C protease (Metallosphaera sedula); assay: co-sedimentation; 1 uM MBP-CdvB1 with 0.1 uM 3C protease, 50 mM HEPES pH 7.4, 50 mM NaCl, 5 mM MgCl2, Ficoll 41.25 mg/mL, overnight at 4 °C; 0.6 uM CdvC added, nucleotide or buffer, 2 min at 50 °C; 140 000 g 30 min at 4 °C; pellet and supernatant on SDS/PAGE
[2] = target: CdvB1 from Metallosphaera sedula, MBP tag cleaved off with 3C protease (Metallosphaera sedula)
[3] = target: CdvB1 from Metallosphaera sedula, MBP tag cleaved off with 3C protease (Metallosphaera sedula); remark: listed apart in the source

Molecule | filament-to-monomer ratio (with CdvC and ADP or ATPγS, no hydrolysable nucleotide) [1] | ATP consumed by CdvC (0.1 uM) in 25 min at 50 °C with CdvB1 filaments (1 uM) against CdvC alone [2] | filament-to-monomer (pellet-to-supernatant) ratio of CdvB1 in the sedimentation assay after CdvC with ATP, 2 min at 50 °C [3]
CdvB1 from Metallosphaera sedula, MBP tag cleaved off with 3C protease (natural protein) | 2 |  | 
CdvC from Metallosphaera sedula (enzyme) MSAQVMLEEMARKYAIAAVRADKEGRREDAINNYKKAIEVLTQIVTLYPDMVARNAYEQMINEYKKRLETLNQMVPEGGEETEKAEEDIVMKEKPKVTLNEIVGLEDVKEALKEAVVYPSKRPDLFPLGWPRGILLYGPPGCGKTMIAAAVANELDSEFIHVDAASIMSKWLGEAEKNVAKIFKTARELSKKENKPAIIFIDELDALLASYTSEVGGEARVRNQFLKEMDGLADKNEISKVYVIGATNKPWRLDEPFLRRFQKRIYITLPDKAHRLELLKHYSSKVKLDPNVNLEELAELTDGYTASDIRDIVQSAHMRVVKEMFEKNLQEPRAINMDDFREVLKVRKPSVNQDMLKAYAAWHEKFKAL |  | 8 fold | 0.1
